Reference: article PMC6629373, “Cryo-EM structure of the rhodopsin-Gαi-βγ complex reveals binding of the rhodopsin C-terminal tail to the gβ subunit” (eLife, 2019)

Target: T1, human Gαi subunit (Gαi1) with N-terminal deca-histidine tag (human, UniProt P63096 1-354)
T1 construct: Gαi1 subunit, human; TEV protease-cleavable tag; source: E. coli BL21 (DE3), purified; not shown: His10, N-terminal, kept
Experiment: cryo-EM structure; rhodopsin-Gi-Fab16 complex; rhodopsin on 1D4 resin mixed with 10xHis-tagged Gi, light-activated, with apyrase, in LMNG; Ni-NTA; Fab16 added in molar excess (1:1.4); SEC in 20 mM HEPES pH 7.5, 150 mM NaCl; Titan Krios, K2; nominal resolution 4.38 Å
Settings: both partners purified

binding result: binds
B1: bovine rhodopsin N2C/M257Y/D282C (stabilized, constitutively active mutant) (receptor, UniProt P02699 1-348, looked up)
chain: MCGTEGPNFYVPFSNKTGVVRSPFEAPQYYLAEPWQFSMLAAYMFLLIMLGFPINFLTLYVTVQHKKLRTPLNYILLNLAVADLFMVFGGFTTTLYTSLHGYFVFGPTGCNLEGFFATLGGEIALWSLVVLAIERYVVVCKPMSNFRFGENHAIMGVAFTWVMALACAAPPLVGWSRYIPEGMQCSCGIDYYTPHEETNNESFVIYMFVVHFIIPLIVIFFCYGQLVFTVKEAAAQQQESATTQKAEKEVTRMVIIYVIAFLICWLPYAGVAFYIFTHQGSCFGPIFMTIPAFFAKTSAVYNPVIYIMMNKQFRNCMVTTLCCGKNPLGDDEASTTVSKTETSQVAPA
modifications: palmitoylation of Cys residues at positions 322 and 323; reconstituted with 9-cis or 11-cis retinal and light-activated
notes: rhodopsin, bovine, mutant N2C/M257Y/D282C; Residues 324-335 of the C-tail were modelled in the map; also called the receptor
